B1: Azoarcus group I ribozyme (parent)
chain: GUGCCUUGCGCCGGGAAACCACGCAAGGGAUGGUGUCAAAUUCGGCGAAACCUAAGCGCCCGCCCGGGCGUAUGGCAACGCCGAGCCAAGCUUCGGCGCCUGCGCCGAUGAAGGUGUAGAGACUAGACGGCACCCACCUAAGGCAAACGCUAUGGUGAAGGCAUAGUCCAGGGAGUGGCGAAAGUCACACAAACCGG

Variants of: B1
Assay: reverse-splicing fitness (ratio to wild type); higher = more active; in vitro selection; Mg2+ level not given
In short: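 An in vitro group I ribozyme library with randomized positions was T7-transcribed and gel-purified. In triplicate, 10 pmol RNA in EPPS pH 7.5 was reacted with 50 pmoles of a 30-nt RNA substrate for 1 h at 37 °C across several added MgCl2 levels (1–48 mM), then stopped with EDTA. Products were reverse transcribed from a substrate-complementary primer, PCR-amplified and sequenced (HiSeq 4000). Fitness is a variant's read proportion after selection over that before, normalised to wild type.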

First: C82U A111U A120C A145C C150A C169G U176G
Second: C82U A111U A120C A145C C150A C169G U176C
The reverse-splicing fitness of the first is lower: 0.00543 for the first, 0.0108 for the second.

Compared with C82U A111U A120C A145C C150A C169G U176A, C82U A111G A145U C150A C169A U176C is lower in reverse-splicing fitness: 0.0195 for the first, 0.00854 for the second.

First: C82U A111G A145U C150A C169A U176G
Second: C82U A111G A145U C150A C169A U176A
The reverse-splicing fitness of the first is lower: 0.00532 for the first, 0.0129 for the second.

Compared with C82U A111U A120C A145C C150G C169G U176C, C82U A111U A120C A145C C150G C169G U176G is lower in reverse-splicing fitness: 0.00632 for the first, 0.0044 for the second.

Compared with C82U A111U A120C A145C C150G C169G U176A, C82U A111U A120C A145C C150A C169A U176G is lower in reverse-splicing fitness: 0.00839 for the first, 0.00538 for the second.

First: C82U A111U A120C A145C C150A C169A U176A
Second: C82U A111U A120C A145C C150A C169A U176C
The reverse-splicing fitness of the first is higher: 0.00878 for the first, 0.0057 for the second.

First: C82U A111G C150G C169G U176C
Second: C82U A111G C150G C169G U176A
The reverse-splicing fitness of the first is lower: 0.00418 for the first, 0.0075 for the second.

First: C82U A111G C150G C169G U176G
Second: C82U A111U A120C A145C C150U C169U U176A
The reverse-splicing fitness of the first is lower: 0.00525 for the first, 0.015 for the second.

Going from C82U A111U A120C A145C C150U C169U U176G to C82U A111U A120C A145C C150U C169U U176C, the reverse-splicing fitness rises from 0.00464 to 0.0108.

Compared with C82U A111G A145G C150A U176A, C82U A111G A145G C150A U176C is higher in reverse-splicing fitness: 0.0328 for the first, 0.0481 for the second.

First: C82U A111G A145G C150A U176G
Second: C82U A111U A120C A145C
The reverse-splicing fitness of the first is lower: 0.0108 for the first, 0.0238 for the second.

First: C82U A111U A120C A145G
Second: C82U A111G A145C C169U U176A
The reverse-splicing fitness of the first is higher: 0.03 for the first, 0.0108 for the second.

First: C82U A111G A145C C169U U176C
Second: C82U A111G A145C C169U U176G
The reverse-splicing fitness of the first is higher: 0.00903 for the first, 0.00386 for the second.

Going from C82U A111G A145U C150A to C82U A111G A145U C150G, the reverse-splicing fitness rises from 0.0335 to 0.0379.

First: C82U A111G A145U C150U
Second: C82U A111U A120C A145C C150A C169U U176A
The reverse-splicing fitness of the first is higher: 0.276 for the first, 0.0149 for the second.

First: C82U A111U A120C A145C C150A C169U U176G
Second: C82U A111U A120C A145C C150A C169U U176C
The reverse-splicing fitness of the first is lower: 0.00541 for the first, 0.0112 for the second.

Going from C82U A111G A145U C169U U176A to C82U A111G A145U C169U U176G, the reverse-splicing fitness falls from 0.012 to 0.00468.

First: C82U A111G A145U C169U U176C
Second: C82U A111G A145G C169U U176A
The reverse-splicing fitness of the first is lower: 0.00988 for the first, 0.0117 for the second.

Compared with C82U A111G A145G C169U U176C, C82U A111G A145G C169U U176G is lower in reverse-splicing fitness: 0.0129 for the first, 0.0046 for the second.

Going from C82U A111G A145U C150G U176G to C82U A111G A145U C150G U176A, the reverse-splicing fitness rises from 0.00442 to 0.0137.

Compared with C82U A111G A145U C150G U176C, C82U A111G A145U C150U C169U U176A is lower in reverse-splicing fitness: 0.0255 for the first, 0.0117 for the second.

First: C82U A111G A145U C150U C169U U176C
Second: C82U A111G A145U C150U C169U U176G
The reverse-splicing fitness of the first is higher: 0.0118 for the first, 0.0051 for the second.

Going from C82U A111G C150A C169G U176C to C82U A111G C150A C169G U176A, the reverse-splicing fitness rises from 0.0199 to 0.0207.

Going from C82U A111G C150A C169G U176G to C82U A111G C150G C169A U176G, the reverse-splicing fitness falls from 0.00673 to 0.00562.

Going from C82U A111G C150G C169A U176A to C82U A111G C150G C169A U176C, the reverse-splicing fitness rises from 0.00962 to 0.0121.

Compared with C82U A111G A145G C150G C169G U176A, C82U A111G A145G C150G C169G U176C is lower in reverse-splicing fitness: 0.00977 for the first, 0.00848 for the second.

Going from C82U A111G A145G C150G C169G U176G to C82U A111G A145C C150G C169U U176A, the reverse-splicing fitness rises from 0.00507 to 0.00744.

Going from C82U A111G A145C C150G C169U U176C to C82U A111G A145C C150G C169U U176G, the reverse-splicing fitness falls from 0.00873 to 0.00478.

Going from C82U A111G C169G to C82U A111G C169A, the reverse-splicing fitness falls from 0.0092 to 0.0072.

Compared with C82U A111G C169U, C82U A111G A145G C150G C169U U176G is lower in reverse-splicing fitness: 0.0128 for the first, 0.00654 for the second.

Going from C82U A111G A145G C150G C169U U176C to C82U A111G A145G C150G C169U U176A, the reverse-splicing fitness falls from 0.012 to 0.0101.

First: C82U A111G C150U C169U
Second: C82U A111G C150U C169G
The reverse-splicing fitness of the first is higher: 0.0108 for the first, 0.0092 for the second.

Going from C82U A111G C150U C169A to C82U A111U A120C A145G C150A, the reverse-splicing fitness rises from 0.00959 to 0.0116.

First: C82U A111G A145U C150U C169G U176A
Second: C82U A111G A145U C150U C169G U176C
The reverse-splicing fitness of the first is higher: 0.0118 for the first, 0.0105 for the second.

Compared with C82U A111G A145U C150U C169G U176G, C82U A111G A145C C150G C169A U176C is higher in reverse-splicing fitness: 0.00489 for the first, 0.00614 for the second.

First: C82U A111G A145C C150G C169A U176A
Second: C82U A111G A145C C150G C169A U176G
The reverse-splicing fitness of the first is higher: 0.00801 for the first, 0.00511 for the second.

Going from C82U A111G A145C C150U C169A U176C to C82U A111G A145C C150U C169A U176G, the reverse-splicing fitness falls from 0.00548 to 0.00526.

Compared with C82U A111G A145C C150U C169A U176A, C82U A111G A145U C169A U176C is lower in reverse-splicing fitness: 0.00923 for the first, 0.00683 for the second.

Compared with C82U A111G A145U C169A U176G, C82U A111G A145U C169A U176A is higher in reverse-splicing fitness: 0.00528 for the first, 0.00885 for the second.

Going from C82U A111G A145C to C82U A111G A145U, the reverse-splicing fitness rises from 0.406 to 0.462.

Going from C82U A111G A145G to C82U A111G A145U C150A C169G, the reverse-splicing fitness falls from 0.433 to 0.00745.

C82U A111G A145U C150A C169U gave a reverse-splicing fitness of 0.0083.

— the RNAGym collection of RNA variant scans (doi:10.1093/molbev/msab373)
